The source of these data is US20250177447A1.

This experiment has as its target G protein-coupled receptor class C group 5 member D (GPRC5D) on tumor cells (MM.1S, RPMI8226, NCI-H929) (human) (UniProt Q9NZD1). Kind of experiment: cell-based or functional assay.
UniProt Q9NZD1, sequence (Q9NZD1 whole entry): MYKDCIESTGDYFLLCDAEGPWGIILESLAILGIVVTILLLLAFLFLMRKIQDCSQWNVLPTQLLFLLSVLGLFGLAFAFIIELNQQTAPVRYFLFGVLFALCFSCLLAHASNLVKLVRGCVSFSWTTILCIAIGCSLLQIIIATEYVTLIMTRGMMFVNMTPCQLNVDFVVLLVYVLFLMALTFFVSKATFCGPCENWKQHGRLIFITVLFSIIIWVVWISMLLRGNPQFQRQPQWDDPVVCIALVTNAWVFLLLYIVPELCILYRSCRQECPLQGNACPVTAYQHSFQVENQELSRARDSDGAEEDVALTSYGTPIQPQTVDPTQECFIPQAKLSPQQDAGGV

B1: CAR1, GPRC5D chimeric antigen receptor (CAR 1 (VL-VH)), expressed on human T cells (protein, part only; not given: CAR backbone and scFv linker, not shown: small tags and cut ends)
chain, part: SSELTQDPAASVALGQTVRITCQGDSVRTYYAGWYQQKPGQAPVLVIYGKNHRPSGIPDRFSGSTSGNTASLTITGVQAEDEADYYCNSRDSSANPVFGGGTKVTVLQVQLVQSGAEVKKPGASVKVSCKASGYTFTSYYMHWVRQAPGQGLEWMGWINPNSGGTNYAQKFQGRVTITADKSTSTAYMELNSLRAEDTAVYYCVRSKGRAARNYYYMDVWGKGTTVTVSS
Consider B1, for which the % survival of MM.1S-ffluc cells, luciferase cytotoxicity assay, 24 h, E:T 1:1 stood at 20%; the % survival of MM.1S-ffluc cells, luciferase cytotoxicity assay, 24 h, E:T 1:2 amounted to 60%; the % survival of MM.1S-ffluc cells, luciferase cytotoxicity assay, 24 h, E:T 1:4 worked out at 88%; the % survival of RPMI8226-ffluc cells, luciferase cytotoxicity assay, 24 h, E:T 1:1 worked out at 12%. The % survival of RPMI8226-ffluc cells, luciferase cytotoxicity assay, 24 h, E:T 1:2 amounted to 40%; the % survival of RPMI8226-ffluc cells, luciferase cytotoxicity assay, 24 h, E:T 1:4 stood at 70%; the % survival of RPMI8226-ffluc cells, luciferase cytotoxicity assay, 24 h, E:T 1:8 stood at 90%.

B2: CAR2, GPRC5D chimeric antigen receptor (CAR 2 (VL-VH)), expressed on human T cells (protein, part only; not given: CAR backbone and scFv linker, not shown: small tags and cut ends)
chain, part: SSELTQDPAASVALGQTVKITCQGDSLRRYFASWYQQKPGQAPTLVTYGKNRRPSGVPDRLSGSSSGDTASLTITGAQAEDEGDYYCNSRDRSGTVVFGGGTKLTVLEVQLVESGGGVVQPGRSLRLSCAASGFTFSSYAMSWVRQAPGKGLEWVSAISGSGGSTYYAGSVKGRFTISRDNSKNTLYLQMNSLRAEDTAVYYCARDLYGYRYYYYGMDVWGQGTMVTVSS
In turn, B2 had a % survival of MM.1S-ffluc cells, luciferase cytotoxicity assay, 24 h, E:T 1:1 below 5%; a % survival of MM.1S-ffluc cells, luciferase cytotoxicity assay, 24 h, E:T 1:2 of 15%; a % survival of MM.1S-ffluc cells, luciferase cytotoxicity assay, 24 h, E:T 1:4 of 35%; a % survival of MM.1S-ffluc cells, luciferase cytotoxicity assay, 24 h, E:T 1:8 of 85%. Also, the % survival of RPMI8226-ffluc cells, luciferase cytotoxicity assay, 24 h, E:T 1:1 amounted to 3%; the % survival of RPMI8226-ffluc cells, luciferase cytotoxicity assay, 24 h, E:T 1:2 was found to be 10%; the % survival of RPMI8226-ffluc cells, luciferase cytotoxicity assay, 24 h, E:T 1:4 turned out to be 25%; the % survival of RPMI8226-ffluc cells, luciferase cytotoxicity assay, 24 h, E:T 1:8 came out at 50%.
